Values belong to the binder of their own block, whether it stands above or below them.
Columns and labels:
[1] = molecular target: T1, human myoglobin (human, UniProt P02144 1-154); test: BLI
T1 chain: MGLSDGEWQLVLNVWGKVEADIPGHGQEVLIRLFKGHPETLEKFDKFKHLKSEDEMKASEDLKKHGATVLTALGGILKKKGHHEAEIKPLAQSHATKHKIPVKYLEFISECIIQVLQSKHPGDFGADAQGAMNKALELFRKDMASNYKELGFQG

[2] = molecular target: T1, human myoglobin; test: BLI
[3] = molecular target: T2, equine myoglobin (Equus caballus, UniProt P68082); test: ELISA; proteins coated on a 96-well plate (human myoglobin 5 μg/mL in carbonate buffer pH 9.6, 4 °C, 16 h), blocked with BSA in PBST; scFv or premature antibody added for 1 h at 37 °C; scFv detected by anti-6x His tag antibody and HRP-conjugated secondary antibody; scFv 1.9 μg/mL, IgG2-7Ds 0.5 μg/mL in the comparison of proteins; conditions: both partners purified
T2 construct: myoglobin, equine
T2 sequence (P68082 whole entry): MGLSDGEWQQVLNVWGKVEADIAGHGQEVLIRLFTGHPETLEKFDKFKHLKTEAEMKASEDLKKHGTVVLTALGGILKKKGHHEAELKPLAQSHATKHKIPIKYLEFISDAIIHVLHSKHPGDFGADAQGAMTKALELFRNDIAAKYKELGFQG

[4] = molecular target: T3, conalbumin (Gallus gallus (assumed), UniProt P02789); test: as above; conditions: both partners purified
T3 construct: conalbumin (ovotransferrin)
T3 sequence (P02789 20-705): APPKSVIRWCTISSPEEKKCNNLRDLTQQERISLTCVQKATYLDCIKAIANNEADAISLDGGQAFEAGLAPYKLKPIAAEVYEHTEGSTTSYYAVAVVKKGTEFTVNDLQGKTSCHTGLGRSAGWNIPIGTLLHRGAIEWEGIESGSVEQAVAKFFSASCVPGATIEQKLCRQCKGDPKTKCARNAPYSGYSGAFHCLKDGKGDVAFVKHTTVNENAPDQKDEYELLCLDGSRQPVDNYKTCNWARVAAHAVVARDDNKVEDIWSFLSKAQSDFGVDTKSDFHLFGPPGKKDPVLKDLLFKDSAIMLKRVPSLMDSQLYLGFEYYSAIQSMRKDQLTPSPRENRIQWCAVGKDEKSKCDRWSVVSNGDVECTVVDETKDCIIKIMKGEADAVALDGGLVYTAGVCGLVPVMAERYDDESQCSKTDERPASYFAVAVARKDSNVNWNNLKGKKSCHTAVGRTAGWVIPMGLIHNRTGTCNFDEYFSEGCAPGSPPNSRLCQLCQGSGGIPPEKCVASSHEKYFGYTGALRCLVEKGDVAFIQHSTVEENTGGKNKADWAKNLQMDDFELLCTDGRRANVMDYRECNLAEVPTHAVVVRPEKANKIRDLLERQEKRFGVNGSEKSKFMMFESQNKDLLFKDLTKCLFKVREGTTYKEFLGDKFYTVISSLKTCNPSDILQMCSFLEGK

[5] = molecular target: T4, myoglobin peptide, aa 144–154 (Homo sapiens, UniProt P02144); test: ELISA; synthetic peptides of human myoglobin and human cardiac troponin I; scFv 1.9 μg/mL, IgG2-7Ds 0.5 μg/mL; conditions: both partners purified
T4 construct: also called C-terminal region of the myoglobin peptide; source: synthetic peptide
T4 chain: ASNYKELGFQG

[6] = molecular target: T5, human myoglobin (Homo sapiens, UniProt P02144); test: BLI; Octet Red; human myoglobin (5 μg/mL in PBS, pH 7.4) immobilised on APS sensor tip at 30 °C for 900 s, blocked with 0.5% casein in PBS; scFv in casein-PBS; BSA as negative control; conditions: both partners purified
T5 construct: myoglobin, human; also called myoglobin antigen; human myoglobin antigen

koff [1]: 0.0104 s⁻¹ | Kd [2]: 2.89 nM | binding result [3]: binds | binding result [4]: no binding (tested: IgG2-7Ds 0.5 μg/mL)
B1: parent premature antibody Myo2-7Ds (whole IgG) (antibody, V domains shown)
VH: QIQLVQSGPELKKPGETVKISCKASGYTFTDYSIHWVRQAPEKGLKWMGWINTETGEPTYADDFTGRFAFSLETSASTAYLQITNLKNEDTATYFCARRFTTTTWFAYWGQGTLVTVSA
VL: DVLMTQTPLSLPVSLGDQASISCRSSQNIVHSSGNTYLEWYLQKPGQSPRFLIYKVSNRFSGVPDRFSGSGSGTDFTLKISRVEAEDLGVYYCFQGSHVPYTFGGGTKLEIK
notes: as the VH of m1; constant part of the heavy chain; as the VL of m1; constant part of the light chain; IgG; The variable regions were the template of the scFv m1; also called IgG2-7Ds; parental antibody

Kd [2]: 61.1 nM | binding result [5]: binds | Kd [6]: 10 nM | koff [6]: 0.00629 s⁻¹ | kon [6]: 93200 M⁻¹ s⁻¹ | binding result [3]: binds | binding result [4]: no binding (tested: scFv 1.9 μg/mL)
B2: refolded scFv-Myo2-7Ds (scFv, V domains shown)
VH: B1 VH
VL: B1 VL
notes: VH of the monoclonal antibody Myo2-7Ds; (GGGGS) x 3 linker between VH and VL; VL of the monoclonal antibody Myo2-7Ds; Plasmid pET28a-scFv-Myo2-7Ds6xH, no pelB leader; A TEV cleavage site stands between the N-terminal His6 tag and the scFv; no cleavage is reported; The abstract gives the order VH-VL, but both printed primers seem to encode ends of a light chain; also called 2-7ds …
